# Data as given in US7838231.
# Assays:
# [1] = target: endogenous ATF4 of HEK293T cells (UniProt P18848); experiment: cell-based or functional assay
# [2] = target: full-length ATF4 (pCEP-ATF4) (UniProt P18848); experiment: cell-based or functional assay
# full-length ATF4 (pCEP-ATF4), sequence (P18848 whole entry): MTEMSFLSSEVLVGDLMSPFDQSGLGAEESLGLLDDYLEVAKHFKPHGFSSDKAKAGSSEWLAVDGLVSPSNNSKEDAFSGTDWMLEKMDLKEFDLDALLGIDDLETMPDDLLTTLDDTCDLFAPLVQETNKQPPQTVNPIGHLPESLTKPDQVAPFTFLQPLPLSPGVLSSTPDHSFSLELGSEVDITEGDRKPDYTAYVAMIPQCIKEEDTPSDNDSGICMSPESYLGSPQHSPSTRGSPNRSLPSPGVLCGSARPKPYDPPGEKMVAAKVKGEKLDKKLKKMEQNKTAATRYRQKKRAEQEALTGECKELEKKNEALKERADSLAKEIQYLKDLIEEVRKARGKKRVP
# endogenous ATF4 of HEK293T cells, sequence (P18848 whole entry): as above
"reporter activity (pCRE-ATF4X2, HEK293T cells) after knock-down of NPHP6 with pTER-NPHP6, compared to empty vector [1] [%]","reporter activity (dual-luciferase reporter construct for ATF4, pCRE-ATF4×2, in HEK293T cells), compared to empty vector pCEP4F [2] [fold]","reporter activity (pCRE-ATF4×2, HEK293T cells) with either construct alone, compared to empty vector pCEP4F [2] [fold]",Substance
75.4,,,endogenous NPHP6 of HEK293 / HEK293T cells (from UniProt O15078 1-2479)
,9.7,2,myc-tagged full-length human NPHP6 (pCJW206-Cep290) (from UniProt O15078 1-2479)
